# Measured values: US20120263732A1, “CD40 ANTIBODY FORMULATION AND METHODS” (PFIZER INC., priority 2003, published 2012)
# Key:
# [1] = tested on: lymph node cells obtained from cancer patients; assay: IFNγ producing cells by ELISPOT in lymph node cell cultures stimulated with tumor antigen; assay type: cell-based, human; settings: antibody 1 μg/mL (6.7 nM); ELISPOT following restimulation
# Text: Effects of a human anti-CD40 antibody (21.4.1) on lymph node cells obtained from cancer patients stimulated with autologous tumor cells was examined.
# Lymph node cells and tumors were collected from patients with renal cell carcinoma, non-small cell lung cancer, transitional cell carcinoma of the bladder, colon cancer, prostate cancer, and head and neck cancer. The lymph node cells were placed into culture together with irradiated collagenase treated tumors (recovered from the same patient) in the presence or absence of 21.4.1 (1 μg/mL; 6.7 nM). Proliferation was assessed using ^3H-thymidine 96 hours later. The number of INFγ producing cells was assessed by ELISPOT, following restimulation.
# [2] = tested on: CD40(−) colon carcinoma, Lovo; assay: CD40(−) Lovo colon carcinoma growth in SCID-beige mice; assay type: in vivo, human tumor in SCID-beige mice; settings: in the absence of immune cells
# Procedure: The effects of a CD40 antibody (21.4.1) on the growth of CD40(−) tumors (e.g., erythroleukemia and colon carcinoma) were examined. In particular, K562 tumors were chosen to assess the efficacy of 21.4.1 against a CD40(−) low immunogenic (class I and II negative) tumor.
# SCID-beige mice were injected SC with the CD40(−) erythroleukemic tumor, K562 (ATCC CCL-243) alone or in the presence of human peripheral blood T cells and DCs. Animals received a single IP injection of 21.4.1 either at the time of tumor injection or 5 days later using various dose levels.
# The amount of 21.4.1 to cause a 50% inhibition of tumor growth was 0.005 mg/kg corresponding to a Cmax serum concentration of 0.05 μg/mL. […] The results were identical when 21.4.1 was administered on Day 0 or Day +5 relative to tumor challenge. The growth of these CD40(−) tumors was not inhibited by 21.4.1 in the absence of immune cells.
# breast tumor, BT 474 = assay: Established BT 474 breast tumors: antibody and/or cisplatin; assay type: in vivo, human tumor in SCID-beige mice; settings: single IP injection once tumors reached 200 mm^2; antibody 1 mg/kg, cisplatin 2.5 mg/kg; Day 84
# Procedure: The therapeutic effects of an anti-CD40 antibody (21.4.1) in preventing the growth of human breast tumors alone and in the presence of cisplatin was examined.
# SCID-beige mice were injected SC with the breast tumor, BT 474. The antibody (1 mg/kg, IP) and/or cisplatin (2.5 mg/kg, IP) were administered as a single injection once tumors reached a size of 200 mm^2. Tumor growth was measured on Day 84 after challenge.
# [3] = Serum pharmacokinetics after one injection in SCID-beige mice
# [4] = Multiple-dose IV pharmacokinetics; assay type: in vivo, cynomolgus monkeys
# Procedure: In a multiple-dose study, 21.4.1 was administered intravenously to cynomolgus monkeys (2/sex/dose) at doses of 0.3, 1.0, and 10 mg/kg on Days 1, 3, 5, 7, and 9 for 5 total doses. Blood was collected on Days 1 and 9 before dosing and 0.5, 6, and 24 hours after dosing and before dosing and 0.5 hour after dosing on Day 5 to measure serum drug concentrations. Systemic exposure to 21.4.1, as assessed by mean Cmax and mean AUG(0-24), increased with increasing dose from 0.3 to 10 mg/kg on both Day 1 and Day 9 (Table 2). Similar exposures (mean Cmax and mean AUC) were observed on Days 1 and 9 in the 0.3 and 1 mg/kg dose groups. […] Gender-related differences in exposure were not observed.
# B cell lymphoma Daudi = assay: Mortality in systemic Daudi B cell lymphoma model; assay type: in vivo, human tumor in SCID-beige mice; settings: Daudi IV; single IP injection; monitored for 58 days
# Procedure: The ability of an anti-CD40 antibody according to the invention (21.4.1) to delay mortality in a CD40(+) systemic tumor model using a B cell lymphoma was assessed.
# SCID-beige mice were injected IV with the B cell lymphoma Daudi (ATCC CCL-213). 21.4.1 was administered as a single injection (IP) at the time of tumor injection. Mortality was monitored for 58 days.
# [5] = tested on: human breast tumor, BT 474; assay: BT 474 breast tumor growth with human T cells and DC in SCID-beige mice; assay type: in vivo
# Text: SCID-beige mice were challenged with the human breast tumor, BT 474 (ATCC HTB-20), SC, together with human peripheral blood T cells and DC. Animals received a single dose of 21.4.1 (IP) at the time of tumor injection.
# [6] = biological target: T1, CD40 receptors on human leukocytes (Homo sapiens, UniProt P25942); assay: 125I-21.4.1 binding to CD40 receptors on human leukocytes; settings: 500-fold excess unlabeled 21.4.1; total % specific binding minus % binding to FcR
# T1 construct: Human leukocytes from normal donors or cynomolgus leukocytes were isolated from whole blood; endogenous in cells; host or cells: human peripheral blood leukocytes from normal donors
# T1 sequence (P25942 21-277): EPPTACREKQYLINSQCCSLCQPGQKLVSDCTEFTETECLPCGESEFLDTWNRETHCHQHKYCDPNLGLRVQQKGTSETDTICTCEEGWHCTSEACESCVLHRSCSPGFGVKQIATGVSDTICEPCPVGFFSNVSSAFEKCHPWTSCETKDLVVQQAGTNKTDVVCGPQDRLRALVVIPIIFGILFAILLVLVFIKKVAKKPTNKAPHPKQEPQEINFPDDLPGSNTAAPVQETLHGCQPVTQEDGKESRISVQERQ
# Procedure: The binding of 21.4.1 to Fc receptors (FcR) on human or cynomolgus peripheral blood leukocytes was determined by using ^125I-21.4.1 and a human IgG1 control mAb. Human leukocytes from normal donors or cynomolgus leukocytes were isolated from whole blood using plasma gel and washed thoroughly to allow dissociation of receptor-bound serum immunoglobulins. Centrifugation through a sucrose cushion was used to separate cell-bound and free antibodies. Studies were performed at 4° C. in the presence of sodium azide to prevent receptor internalization.
# 21.4.1 was tested for specific binding to FcR by using excess unlabeled human IgG2 isotype matched antibody as a competitor. ^125I-21.4.1 specific binding to FcR on human leukocytes (n=5 donors) was −1.0±8.5%, and specific binding to FcR on cynomolgus leukocytes (n=4) was 15±13%. […] The specific binding of the IgG1 control antibody to FcR on human and cynomolgus leukocytes accounted for 56% and 51% of the total bound radioactivity, respectively.
# [7] = 0.3 mg/kg IV every other day, Day 1
# [8] = 0.3 mg/kg IV every other day, Day 9
# [9] = 1.0 mg/kg IV every other day, Day 1
# [10] = 1.0 mg/kg IV every other day, Day 9
# [11] = 10 mg/kg IV every other day, Day 1
# [12] = 10 mg/kg IV every other day, Day 9
substance,measurement,setting,value
21.4.1: human agonist anti-CD40 antibody; amino acid sequences SEQ ID NOs:5-8; hybridoma deposit PTA-3605,number of IFNγ+ positive T cells,[1],enhanced
same,growth of Lovo tumor,[2],not inhibited
same,"tumor growth, single agent","breast tumor, BT 474",prevented tumor growth
same,Cmax serum concentration,[3]; corresponding to 0.001 mg/kg single IP,10 ng/mL
same,Cmax serum concentration,[3]; corresponding to 0.005 mg/kg single IP,50 ng/mL
same,Cmax serum concentration,[3]; corresponding to 0.02 mg/kg single IP,200 ng/mL
same,AUC(0-24),[4]; [7],47.7 ± 15.4 µg·h/mL
same,Cmax,[4]; [7],4670 ± 1710 ng/mL
same,Tmax,[4]; [7],1.9 ± 2.8 h
same,AUC(0-24),[4]; [8],55.6 ± 47.1 µg·h/mL
same,Cmax,[4]; [8],7400 ± 2900 ng/mL
same,Tmax,[4]; [8],0.5 ± 0.0 h
same,AUC(0-24),[4]; [9],387 ± 59 µg·h/mL
same,Cmax,[4]; [9],26700 ± 5100 ng/mL
same,Tmax,[4]; [9],0.5 ± 0.0 h
same,AUC(0-24),[4]; [10],219 ± 151 µg·h/mL
same,Cmax,[4]; [10],12300 ± 9100 ng/mL
same,Tmax,[4]; [10],1.9 ± 2.8 h
same,AUC(0-24),[4]; [11],4130 ± 600 µg·h/mL
same,Cmax,[4]; [11],226000 ± 29000 ng/mL
same,Tmax,[4]; [11],1.9 ± 2.8 h
same,AUC(0-24),[4]; [12],11400 ± 2100 µg·h/mL
same,Cmax,[4]; [12],577000 ± 163000 ng/mL
same,Tmax,[4]; [12],3.3 ± 3.2 h
same,increase of mean AUG(0-24) from Day 1 to Day 9,[4]; 10 mg/kg dose group,2.8 fold
same,increase of mean Cmax from Day 1 to Day 9,[4]; 10 mg/kg dose group,2.6 fold
same,mortality induced by systemically administered tumor cell line,B cell lymphoma Daudi,prevented mortality
same,amount necessary to cause a 50% reduction in tumor growth,"[5]; BT 474 with human T cells and DC, single IP dose at tumor injection, Day 53",0.005 mg/kg
same,growth of BT 474 cells,"[5]; in the presence of immune cells, single injection",prevented the growth
same,specific binding to CD40 receptors on human leukocytes,[6],49%
